Measurements taken from PMC9489553, “Biochemical and clinical studies of putative allergens to assess what distinguishes them from other non-allergenic proteins in the same family” (Transgenic Research, 2022).

B1: Cladosporium herbarum mannitol dehydrogenase (enzyme)
chain: MPGQQATKHESLLDQLSLKGKVVVVTGASGPKGMGIEAARGCAEMGAAVAITYASRAQGAEENVKELEKTYGIKAKAYKCQVDSYESCEKLVKDVVADFGQIDAFIANAGATADSGILDGSVEAWNHVVQVDLNGTFHCAKAVGHHFKERGTGSLVITASMSGHIANFPQEQTSYNVAKAGCIHMARSLANEWRDFARVNSISPGYIDTGLSDFVPKETQQLWHSMIPMGRDGLAKELKGAYVYFASDASTYTTGADLLIDGGYTTR
notes: codon-optimised synthetic gene in pET-28a; Crystallised in complex with NADP+; also called ChMDH; C. herbarum MDH; source: E. coli BL21 (DE3), purified (Ni-NTA, size-exclusion chromatography); not shown: His-tag, N-terminal, cleaved
B2: Cladosporium herbarum (aka Davidiella tassiana) aldehyde dehydrogenase (enzyme)
chain: MTSVQLETPHSGKYEQPTGLFINNEFVKGQEGKTFDVINPSDESVITQVHEATEKDVDIAVAAARKAFEGSWRQETPENRGKLLNNLANLFEKNIDLLAAVESLDNGKAISMAKGDISMCVGCLRYYGGWADKITGKVIDTTPDTFNYVKKEPIGVCGQIIPWNFPLLMWAWKIGPAIACGNTVVLKTAEQTPLGGLVAASLVKEAGFPPGVINVISGFGKVAGAALSSHMDVDKVAFTGSTVVGRTILKAAASSNLKKVTLELGGKSPNIVFEDADIDNAISWVNFGIFFNHGQCCCAGSRVYVQESIYDKFVQKFKERAQKNVVGDPFAADTFQGPQVSKVQFDRIMEYIQAGKDAGATVETGGKRKGDKGYFIEPTIFSNVTEDMKIVKEEIFGPVCSIAKFKTKEDAIKLGNASTYGLAAAVHTKNLNTAIEVSNALKAGTVWVNTYNTLHHQMPFGGYKESGIGRELGEDALANYTQTKTVSIRLGDALFG
notes: aldehyde dehydrogenase of Cladosporium herbarum (aka Davidiella tassiana), GenBank CAA55072.2; codon-optimised synthetic gene in pET-28a; Apoenzyme in the crystal; also called ChALDH; C. herbarum ALDH; source: E. coli BL21 (DE3), purified (Ni-NTA, size-exclusion chromatography); not shown: His-tag, N-terminal, cleaved

Tests used:
[1] = target: the molecule itself; test: crystal structure; ChMDH with 5 mM NADP+, hanging drop at 4 °C, 25% PEG-1500, sodium propionate/sodium cacodylate/BIS-TRIS propane pH 7.0; 2.04 Å
[2] = target: the molecule itself; test: crystal structure; ChALDH apoenzyme, hanging drop at 4 °C, 20% PEG-100, 100 mM sodium/potassium phosphate pH 6.2, 200 mM NaCl; 3.18 Å

Protein	stoichiometry N [1]	stoichiometry N [2]
B1	4	
B2		4
